Test results reported in publication PMC3225088.

Target: T1, NmtR wild-type (Mycobacterium tuberculosis, UniProt O69711 2-120)
T1 sequence: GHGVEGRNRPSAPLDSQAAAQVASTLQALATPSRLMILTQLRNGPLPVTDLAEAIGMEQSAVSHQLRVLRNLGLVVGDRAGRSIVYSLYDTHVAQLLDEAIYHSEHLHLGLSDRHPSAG
Test: fluorescence anisotropy

B1: nmt operator 30 bp (dsDNA)
DNA 1: GAAATAAATGAACATATGATCATATATTCT
DNA 2: AGAATATATGATCATATGTTCATTTATTTC
Ka: 2.86e+10 M⁻¹
